{"source": "paper PMC11887224", "binders": {"B1": {"name": "TRPFL (structured_DNA)", "DNA": "CTACGGTGCCTTGAAGTGACTCGTTCCGTCCCTGGCCGCTCCTACTATCGATGTGTCATAGCAGGTCACTTCCAGG"}}, "biological_target": "Trop-2 (recombinant, His-tagged) (UniProt P09758 27-274)", "sequence (P09758 27-274)": "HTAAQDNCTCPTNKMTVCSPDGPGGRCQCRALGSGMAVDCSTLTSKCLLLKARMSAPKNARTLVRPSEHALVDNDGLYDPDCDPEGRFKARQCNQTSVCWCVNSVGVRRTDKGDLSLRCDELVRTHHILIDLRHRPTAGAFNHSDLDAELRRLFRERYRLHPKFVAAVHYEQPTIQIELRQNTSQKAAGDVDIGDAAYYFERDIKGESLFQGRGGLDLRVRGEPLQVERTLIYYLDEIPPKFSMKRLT", "assay": "SPR", "data": [{"binder": "B1", "values": [{"measurement": "Kd", "value": 110, "unit": "nM"}]}]}
